The results in this text go back to paper PMC12892918, “CoREST complex inhibition alters RNA splicing to promote neoantigen expression and enhance tumor immunity” (JCI Insight, 2025).

The assay addresses LSD1 (aa 171–852) and RCOR1 (aa 286–485) complex (truncated LC) (UniProt O60341 171-852; Q9UKL0 286-485). As to the kind of experiment: MST; Cy5-labelled His-tag U2AF2 fragments mixed with serially diluted truncated LSD1/RCOR1. The settings on record: both partners purified.

B1: His-tag U2AF2 fragment (aa 85–471), Cy5-labelled (domain or fragment)
chain: KKKVRKYWDVPPPGFEHITPMQYKAMQAAGQIPATALLPTMTPDGLAVTPTPVPVVGSQMTRQARRLYVGNIPFGITEEAMMDFFNAQMRLGGLTQAPGNPVLAVQINQDKNFAFLEFRSVDETTQAMAFDGIIFQGQSLKIRRPHDYQPLPGMSENPSVYVPGVVSTVVPDSAHKLFIGGLPNYLNDDQVKELLTSFGPLKAFNLVKDSATGLSKGYAFCEYVDINVTDQAIAGLNGMQLGDKKLLVQRASVGAKNATLVSPPSTINQTPVTLQVPGLMSSQVQMGGHPTEVLCLMNMVLPEELLDDEEYEEIVEDVRDECSKYGLVKSIEIPRPVDGVEVPGCGKIFVEFTSVFDCQKAMQGLTGRKFANRVVVTKYCDPDSYHR
modifications: Cy5 dye at lysine residues (reactive NHS-ester dye)
notes: U2AF2, aa 85-471; also called U2AF2 85–471; Fluor-U2AF2
Consider B1, for which the Kd amounted to 14 µM.

B2: His-tag U2AF2 fragment (aa 241–471), Cy5-labelled (domain or fragment)
chain: NPSVYVPGVVSTVVPDSAHKLFIGGLPNYLNDDQVKELLTSFGPLKAFNLVKDSATGLSKGYAFCEYVDINVTDQAIAGLNGMQLGDKKLLVQRASVGAKNATLVSPPSTINQTPVTLQVPGLMSSQVQMGGHPTEVLCLMNMVLPEELLDDEEYEEIVEDVRDECSKYGLVKSIEIPRPVDGVEVPGCGKIFVEFTSVFDCQKAMQGLTGRKFANRVVVTKYCDPDSYHR
modifications: Cy5 dye at lysine residues (reactive NHS-ester dye)
notes: U2AF2, aa 241-471, composed of RRM2 and UHM; also called U2AF2 241–471; Fluor-U2AF2
As to B2, the Kd was 16 µM.
